Measurements: patent US20160264649A1

Key:
Assay in all cases: cell-based or functional assay
[1] = biological target: HIV-1 92RW020 Env (HIV-1)
[2] = biological target: HIV-1 92UG024 Env (HIV-1)
[3] = biological target: HIV-1 93IN905 Env (HIV-1)
[4] = biological target: HIV-1 93IN905 Env on pseudovirus (HIV-1)
[5] = biological target: HIV-1 93MW959 Env on pseudovirus (HIV-1)
[6] = biological target: HIV-1 93UG077 Env (HIV-1)
[7] = biological target: HIV-1 97ZA012 Env on pseudovirus (HIV-1)
HIV-1 APV-6 Env (HIV-1) = biological target: HIV-1 APV-6 Env (HIV-1)
HIV-1 CMU02 Env (HIV-1) = biological target: HIV-1 CMU02 Env (HIV-1)
[8] = biological target: HIV-1 IAVI-C18 Env (HIV-1)
[9] = biological target: HIV-1 JRCSF Env on pseudovirus (HIV-1) (UniProt P20871)
[10] = biological target: HIV-1 LAVI_C3 Env on pseudovirus (HIV-1)
[11] = biological target: HIV-1 MGRM-AE-005 Env (HIV-1)
[12] = biological target: HIV-1 MGRM-AE-007 Env (HIV-1)
[13] = biological target: HIV-1 MGRM-AE-008 Env (HIV-1)
[14] = biological target: HIV-1 MGRM-AG-002 Env (HIV-1)
[15] = biological target: HIV-1 MGRM-AG-005 Env (HIV-1)
[16] = biological target: HIV-1 MGRM-AG-009 Env (HIV-1)
[17] = biological target: HIV-1 MGRM-AG-011 Env (HIV-1)
[18] = biological target: HIV-1 MGRM-C-004 Env on pseudovirus (HIV-1)
[19] = biological target: HIV-1 MGRM-C-005 Env on pseudovirus (HIV-1)
[20] = biological target: HIV-1 MGRM-C-006 Env on pseudovirus (HIV-1)
[21] = biological target: HIV-1 MGRM-C-007 Env on pseudovirus (HIV-1)
[22] = biological target: HIV-1 MGRM-C-010 Env on pseudovirus (HIV-1)
[23] = biological target: HIV-1 MGRM-C-012 Env on pseudovirus (HIV-1)
[24] = biological target: HIV-1 MGRM-C-015 Env on pseudovirus (HIV-1)
[25] = biological target: HIV-1 MGRM-C-022 Env on pseudovirus (HIV-1)
[26] = biological target: HIV-1 MGRM-C-024 Env on pseudovirus (HIV-1)
[27] = biological target: HIV-1 MGRM-Chronic-B-010 Env on pseudovirus (HIV-1)
[28] = biological target: HIV-1 MGRM-Chronic-B-012 Env on pseudovirus (HIV-1)
[29] = biological target: HIV-1 MGRM-Chronic-B-018 Env on pseudovirus (HIV-1)
[30] = biological target: HIV-1 MGRM-Chronic-B-020 Env on pseudovirus (HIV-1)
[31] = biological target: HIV-1 MGRM-Chronic-B-024 Env on pseudovirus (HIV-1)
[32] = biological target: HIV-1 MGRM-D-001 Env (HIV-1)
[33] = biological target: HIV-1 MGRM-D-004 Env (HIV-1)
[34] = biological target: HIV-1 MGRM-D-012 Env (HIV-1)
[35] = biological target: HIV-1 MGRM-D-019 Env (HIV-1)
[36] = biological target: HIV-1 MGRM-D-026 Env (HIV-1)
[37] = biological target: HIV-1 MGRM-F1-008 Env (HIV-1)
[38] = biological target: HIV-1 MGRM-F1-017 Env (HIV-1)
[39] = biological target: HIV-1 MGRM-F1-020 Env (HIV-1)
[40] = biological target: HIV-1 MGRM-F1-021 Env (HIV-1)
[41] = biological target: HIV-1 MGRM-F1-023 Env (HIV-1)
[42] = biological target: HIV-1 MGRM-G-001 Env (HIV-1)
[43] = biological target: HIV-1 MGRM-G-004 Env (HIV-1)
[44] = biological target: HIV-1 MGRM-G-016 Env (HIV-1)
[45] = biological target: HIV-1 PVO.4 (Acute) Env on pseudovirus (HIV-1)
[46] = biological target: HIV-1 SF162 Env on pseudovirus (HIV-1) (UniProt P19550)
[47] = biological target: HIV-1 TRJ0.58 (Acute) Env on pseudovirus (HIV-1)
[48] = biological target: HIV-1 MGRM-F1-010 Env (HIV-1)

2G12 (antibody)
neutralization IC50 [1]: 0.56 µg/mL | neutralization IC90 [1]: 6.23 µg/mL | IC50 (µg/ml), pseudovirus neutralization [2]: 0.42 µg/mL | neutralization IC50 [2]: 0.59 µg/mL | neutralization IC90 [2]: 7.57 µg/mL | neutralization IC50 [3]: > 50 µg/mL | neutralization IC90 [3]: > 50 µg/mL | IC50 [4]: > 50 µg/mL | IC50 [5]: > 50 µg/mL | neutralization IC50 [6]: > 50 µg/mL | neutralization IC90 [6]: > 50 µg/mL | IC50 [7]: > 50 µg/mL | neutralization IC50 (HIV-1 APV-6 Env (HIV-1)): 5.3 µg/mL | IC50 (µg/ml), pseudovirus neutralization (HIV-1 CMU02 Env (HIV-1)): > 50 µg/mL | neutralization IC50 (HIV-1 CMU02 Env (HIV-1)): > 50 µg/mL | neutralization IC90 (HIV-1 CMU02 Env (HIV-1)): > 50 µg/mL | neutralization IC50 [8]: > 50 µg/mL | neutralization IC90 [8]: > 50 µg/mL | IC50 [9]: 0.37 µg/mL | IC50 [10]: > 50 µg/mL | IC50 (µg/ml), pseudovirus neutralization [11]: > 50 µg/mL | IC50 (µg/ml), pseudovirus neutralization [12]: > 50 µg/mL | IC50 (µg/ml), pseudovirus neutralization [13]: > 50 µg/mL | IC50 (µg/ml), pseudovirus neutralization [14]: 0.54 µg/mL | IC50 (µg/ml), pseudovirus neutralization [15]: > 50 µg/mL | IC50 (µg/ml), pseudovirus neutralization [16]: > 50 µg/mL | IC50 (µg/ml), pseudovirus neutralization [17]: > 50 µg/mL | IC50 [18]: > 50 µg/mL | IC50 [19]: > 50 µg/mL | IC50 [20]: > 50 µg/mL | IC50 [21]: > 50 µg/mL | IC50 [22]: > 50 µg/mL | IC50 [23]: > 50 µg/mL | IC50 [24]: 1.75 µg/mL | IC50 [25]: > 50 µg/mL | IC50 [26]: > 50 µg/mL | IC50 [27]: 1.5 µg/mL | IC50 [28]: 0.22 µg/mL | IC50 [29]: > 50 µg/mL | IC50 [30]: 0.2 µg/mL | IC50 [31]: > 50 µg/mL | IC50 (µg/ml), pseudovirus neutralization [32]: > 50 µg/mL | IC50 (µg/ml), pseudovirus neutralization [33]: > 50 µg/mL | IC50 (µg/ml), pseudovirus neutralization [34]: > 50 µg/mL | IC50 (µg/ml), pseudovirus neutralization [35]: > 50 µg/mL | IC50 (µg/ml), pseudovirus neutralization [36]: > 50 µg/mL | IC50 (pseudovirus neutralization) [37]: > 50 µg/mL | IC50 (pseudovirus neutralization) [38]: > 50 µg/mL | IC50 (pseudovirus neutralization) [39]: > 50 µg/mL | IC50 (pseudovirus neutralization) [40]: 14.1 µg/mL | IC50 (pseudovirus neutralization) [41]: 9.23 µg/mL | IC50 (µg/ml), pseudovirus neutralization [42]: > 50 µg/mL | IC50 (µg/ml), pseudovirus neutralization [43]: > 50 µg/mL | IC50 (µg/ml), pseudovirus neutralization [44]: > 50 µg/mL | IC50 [45]: 0.8 µg/mL | IC50 [46]: 1.67 µg/mL | IC50 [47]: > 50 µg/mL

1496_C09 (PG9) (TCN-109) (antibody)
IC50, TZM-bl pseudovirus neutralization [1]: 0.1 µg/mL | neutralization IC50 [1]: 0.0637 µg/mL | neutralization IC90 [1]: 6.55 µg/mL | IC50 (µg/ml), pseudovirus neutralization [2]: 1.91 µg/mL | neutralization IC90 [3]: 1.89 µg/mL | IC50 [4]: 0.03 µg/mL | IC50 [5]: 0.04 µg/mL | IC50 [7]: 1.27 µg/mL | neutralization IC50 (HIV-1 APV-6 Env (HIV-1)): 0.0869 µg/mL | neutralization IC90 (HIV-1 APV-6 Env (HIV-1)): 1.96 µg/mL | IC50 (µg/ml), pseudovirus neutralization (HIV-1 CMU02 Env (HIV-1)): 7.69 µg/mL | neutralization IC50 [8]: 0.0535 µg/mL | neutralization IC90 [8]: 0.866 µg/mL | IC50 [9]: 0.003 µg/mL | IC50 [10]: 1.45 µg/mL | IC50 (µg/ml), pseudovirus neutralization [11]: 0.16 µg/mL | IC50 (µg/ml), pseudovirus neutralization [13]: 10.6 µg/mL | IC50 (µg/ml), pseudovirus neutralization [14]: 0.04 µg/mL | IC50 (µg/ml), pseudovirus neutralization [15]: 29.7 µg/mL | IC50 (µg/ml), pseudovirus neutralization [17]: 0.01 µg/mL | IC50 [18]: 1.18 µg/mL | IC50 [19]: 2.98 µg/mL | IC50 [20]: 0.23 µg/mL | IC50 [21]: 0.09 µg/mL | IC50 [22]: 12.4 µg/mL | IC50 [23]: 0.24 µg/mL | IC50 [24]: 0.5 µg/mL | IC50 [25]: 0.19 µg/mL | IC50 [26]: 0.22 µg/mL | IC50 [27]: 0.004 µg/mL | IC50 [28]: 0.91 µg/mL | IC50 [29]: 0.16 µg/mL | IC50 [31]: 0.18 µg/mL | IC50 (µg/ml), pseudovirus neutralization [33]: 0.03 µg/mL | IC50 (µg/ml), pseudovirus neutralization [34]: 9.31 µg/mL | IC50 (µg/ml), pseudovirus neutralization [35]: 0.03 µg/mL | IC50 (µg/ml), pseudovirus neutralization [36]: 17.5 µg/mL | IC50 (pseudovirus neutralization) [48]: 0.03 µg/mL | IC50 (pseudovirus neutralization) [39]: 4.55 µg/mL | IC50 (µg/ml), pseudovirus neutralization [42]: 0.16 µg/mL | IC50 (µg/ml), pseudovirus neutralization [44]: 0.4 µg/mL | IC50 [45]: 4.01 µg/mL | IC50 [47]: 0.43 µg/mL
